We go through 14 sequences from patent US20040132033.

Holding throughout (experiment): EMSA
Background: In EMSA bound probe runs differently from free probe, usually more slowly.

Data set [1] concerns SBS#1140 ZFP (synthetic). To be noted: 100 mM KCl, 1 mM MgCl2, 100 uM ZnCl2, pH 7.5, RT.
The subject of data set [2] is SBS#1772 ZFP (synthetic). The note with it: 100 mM KCl, 1 mM MgCl2, 100 uM ZnCl2, pH 7.5, RT.
Data set [3] deals with SBS#779 ZFP (synthetic). The note with it: 100 mM KCl, 1 mM MgCl2, 100 uM ZnCl2, pH 7.5, RT.
Data set [4] relates to SBS#386 ZFP (synthetic). The note with it: 100 mM KCl, 1 mM MgCl2, 100 uM ZnCl2, pH 7.5, RT.
In data set [5] the test system is SBS#1750 ZFP (synthetic). To be noted: 100 mM KCl, 1 mM MgCl2, 100 uM ZnCl2, pH 7.5, RT.
For data set [6], the system named is SBS#713 ZFP (synthetic). The note with it: 100 mM KCl, 1 mM MgCl2, 100 uM ZnCl2, pH 7.5, RT.
In data set [7] the test system is SBS#1757 ZFP (synthetic). The note with it: 100 mM KCl, 1 mM MgCl2, 100 uM ZnCl2, pH 7.5, RT.
Data set [8] deals with SBS#1760 ZFP (synthetic). To be noted: 100 mM KCl, 1 mM MgCl2, 100 uM ZnCl2, pH 7.5, RT.
The subject of data set [9] is SBS#1764 ZFP (synthetic). To be noted: 100 mM KCl, 1 mM MgCl2, 100 uM ZnCl2, pH 7.5, RT.
Data set [10] has as its system SBS#519 ZFP (synthetic). The note with it: listed twice (-343 and -329, same 9 bp, SEQ 21 and 23); 100 mM KCl, 1 mM MgCl2, 100 uM ZnCl2, pH 7.5, RT.
In data set [11] the test system is SBS#1756 ZFP (synthetic). The note with it: 100 mM KCl, 1 mM MgCl2, 100 uM ZnCl2, pH 7.5, RT.
In data set [12] the test system is SBS#1770 ZFP (synthetic). The note with it: target also SEQ 111; 100 mM KCl, 1 mM MgCl2, 100 uM ZnCl2, pH 7.5, RT.
For data set [13], the system named is SBS#1755 ZFP (synthetic). The note with it: 100 mM KCl, 1 mM MgCl2, 100 uM ZnCl2, pH 7.5, RT.
The test system of data set [14] is SBS#781 ZFP (synthetic). To be noted: 100 mM KCl, 1 mM MgCl2, 100 uM ZnCl2, pH 7.5, RT.
For data set [15], the system named is SBS#705 ZFP (synthetic). To be noted: 100 mM KCl, 1 mM MgCl2, 100 uM ZnCl2, pH 7.5, RT.

In general, Kd refers to a measure of binding affinity in units of concentration. On to “AAGGGTGCG (double strand) [SBS#1140 target (-287)]”, for which the dissociation constant (Kd) in data set [1] turned out to be 0.3 nM.
“GTGGGTGAT (double strand) [SBS#1772 target (-277)]” showed a dissociation constant Kd in [2] of 0.006 nM.
The sequence “CGGGGAGCA (double strand) [SBS#779 target (-356)]” displayed a dissociation constant Kd in data set [3] of 0.5 nM.
In turn, “GGGGCGGAG (double strand) [SBS#386 target (-111)]” gave a dissociation constant Kd in [4] of 0.4 nM.
“ATGGAGGGC (double strand) [SBS#1750 target (-147)]” displayed an equilibrium dissociation constant (Kd) in [5] of 0.011 nM.
In turn, “GGTGAGGAG (double strand) [SBS#713 target (-127)]” showed an equilibrium dissociation constant (Kd) in data set [6] of 0.15 nM.
Turning to “GGTGCGGAG (double strand) [SBS#1757 target (-290)]”, in data set [7], the Kd amounted to 0.05 nM.
Sequence “ATGGCCGGG (double strand) [SBS#1760 target (-299)]” had a dissociation constant Kd in data set [8] of 0.42 nM.
In data set [9], “CAAGTGGGT (double strand) [SBS#1764 target (-286)]” yielded a dissociation constant Kd of 0.11 nM.
“GGGGAGGAG (double strand) [SBS#519 target (-343 and -329)]” yielded a Kd in [10] of 1.12 nM.
Take “CGGGGAGGA (double strand) [SBS#1756/1770 target (-342)]”: the Kd in [11] is 0.125 nM; in [12], 0.01 nM.
“CGGGAGGCC (double strand) [SBS#1755 target (-319)]” displayed a Kd in data set [13] of 0.006 nM.
For the sequence “GGGGAGCAG (double strand) [SBS#781 target (-357)]”, the equilibrium dissociation constant (Kd) in data set [14] is 4.25 nM.
Consider “GGGGCGGGG (double strand) [SBS#705 target (-201)]”, for which the Kd in data set [15] was found to be 0.01 nM.
